Results from US20260001926A1.

Molecular target: fibroblast growth factor receptor (FGFR)
Assay: cell-based or functional assay

Substance: Bovine wild-type FGF2 (SEQ ID NO: 1) (from UniProt P03969 11-155) (ligand)
- EC50 (luciferase reporter in HEK293T cells transfected with plasmid FJ773212 / pGL4.33): 0.2 ng/ml
